Source: PMC12668182 (2025)

Biological target: N-His-ZB-CSB-Avi-Biotin (WT), full length (human, UniProt Q03468 1-1493, biotin on the C-terminal Avi tag)
Test: SPR

Sequence of N-His-ZB-CSB-Avi-Biotin (WT), full length (Q03468 whole entry): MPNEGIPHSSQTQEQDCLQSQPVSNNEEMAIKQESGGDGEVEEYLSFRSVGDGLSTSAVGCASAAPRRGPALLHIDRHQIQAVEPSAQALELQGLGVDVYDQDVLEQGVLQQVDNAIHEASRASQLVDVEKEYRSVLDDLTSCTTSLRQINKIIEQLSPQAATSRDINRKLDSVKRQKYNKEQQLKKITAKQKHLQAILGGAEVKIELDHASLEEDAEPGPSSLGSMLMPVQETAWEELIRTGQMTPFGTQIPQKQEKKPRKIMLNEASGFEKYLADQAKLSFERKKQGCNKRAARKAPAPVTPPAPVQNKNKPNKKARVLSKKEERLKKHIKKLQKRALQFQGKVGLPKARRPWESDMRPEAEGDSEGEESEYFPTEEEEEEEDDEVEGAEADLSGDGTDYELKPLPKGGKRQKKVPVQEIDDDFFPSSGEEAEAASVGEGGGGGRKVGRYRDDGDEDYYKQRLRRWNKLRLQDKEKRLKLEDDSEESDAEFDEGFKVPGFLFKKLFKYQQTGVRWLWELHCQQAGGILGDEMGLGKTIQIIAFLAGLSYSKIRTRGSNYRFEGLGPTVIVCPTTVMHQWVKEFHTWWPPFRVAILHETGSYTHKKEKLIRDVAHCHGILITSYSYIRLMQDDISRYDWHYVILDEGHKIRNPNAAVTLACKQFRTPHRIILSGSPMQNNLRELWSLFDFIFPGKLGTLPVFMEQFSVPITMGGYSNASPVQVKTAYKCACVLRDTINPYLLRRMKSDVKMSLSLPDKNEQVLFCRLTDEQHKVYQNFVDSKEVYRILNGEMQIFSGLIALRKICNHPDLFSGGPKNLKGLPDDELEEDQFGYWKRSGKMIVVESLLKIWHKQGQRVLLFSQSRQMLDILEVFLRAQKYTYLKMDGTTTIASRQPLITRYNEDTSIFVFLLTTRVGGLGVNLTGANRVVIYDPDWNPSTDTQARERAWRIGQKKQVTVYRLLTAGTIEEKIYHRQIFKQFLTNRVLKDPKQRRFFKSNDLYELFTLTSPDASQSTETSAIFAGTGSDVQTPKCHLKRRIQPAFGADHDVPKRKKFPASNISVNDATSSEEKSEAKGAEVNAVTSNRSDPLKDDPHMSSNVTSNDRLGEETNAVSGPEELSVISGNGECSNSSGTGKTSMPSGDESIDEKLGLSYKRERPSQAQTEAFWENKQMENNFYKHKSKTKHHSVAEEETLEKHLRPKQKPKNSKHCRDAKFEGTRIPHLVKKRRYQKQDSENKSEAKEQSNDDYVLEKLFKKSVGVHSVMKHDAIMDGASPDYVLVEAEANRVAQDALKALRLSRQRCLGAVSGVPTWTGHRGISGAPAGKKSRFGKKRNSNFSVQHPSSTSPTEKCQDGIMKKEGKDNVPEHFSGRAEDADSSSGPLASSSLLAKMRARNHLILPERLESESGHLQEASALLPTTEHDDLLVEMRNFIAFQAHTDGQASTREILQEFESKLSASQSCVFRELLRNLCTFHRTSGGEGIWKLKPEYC

B1: SNM1A (WT, a.a. 698-1040, untagged) (domain or fragment)
chain: KKTCPFYKKIPGTGFTVDAFQYGVVEGCTAYFLTHFHSDHYAGLSKHFTFPVYCSEITGNLLKNKLHVQEQYIHPLPLDTECIVNGVKVVLLDANHCPGAVMILFYLPNGTVILHTGDFRADPSMERSLLADQKVHMLYLDTTYCSPEYTFPSQQEVIRFAINTAFEAVTLNPHALVVCGTYSIGKEKVFLAIADVLGSKVGMSQEKYKTLQCLNIPEINSLITTDMCSSLVHLLPMMQINFKGLQSHLKKCGGKYNQILAFRPTGWTHSNKFTRIADVIPQTKGNISIYGIPYSEHSSYLEMKRFVQWLKPQKIIPTVNVGTWKSRSTMEKYFREWKLEAGY
B1 showed a Kd of 140 nM.
